T1: His-tagged human TROP2 protein (human, UniProt P09758 27-274)
T1 construct: Bought protein; also called hTROP2-His; ACRO Biosystems Cat# TR2-H5223; not shown: His tag
T1 sequence (looked up): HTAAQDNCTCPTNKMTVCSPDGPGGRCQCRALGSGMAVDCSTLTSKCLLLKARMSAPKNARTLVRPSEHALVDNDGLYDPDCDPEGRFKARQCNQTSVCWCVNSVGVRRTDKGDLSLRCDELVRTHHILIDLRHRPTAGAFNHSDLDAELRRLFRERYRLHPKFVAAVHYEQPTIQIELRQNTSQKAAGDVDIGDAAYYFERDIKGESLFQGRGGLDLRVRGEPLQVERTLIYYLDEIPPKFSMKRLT

T2: His-tagged monkey TROP2 protein (cynomolgus monkey; Rhesus …, UniProt A0A5F8AGB8 27-274)
T2 construct: also called cTROP2-His; ACRO Biosystems Cat# TR2-R52H3
T2 sequence: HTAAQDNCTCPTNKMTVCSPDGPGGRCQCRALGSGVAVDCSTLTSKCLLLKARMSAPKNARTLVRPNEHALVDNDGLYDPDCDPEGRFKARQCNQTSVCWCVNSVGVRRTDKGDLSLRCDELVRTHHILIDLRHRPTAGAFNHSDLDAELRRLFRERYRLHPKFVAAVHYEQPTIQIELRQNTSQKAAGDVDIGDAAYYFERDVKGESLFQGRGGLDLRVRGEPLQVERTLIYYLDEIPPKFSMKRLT

T3: TROP2 on NCI-H1975 and NUGC-4 tumor cells (UniProt P09758 27-323, limits assumed)
T3 construct: whole, on cells; species of the lines is not worded there; also called TROP2 on cells
T3 sequence (looked up): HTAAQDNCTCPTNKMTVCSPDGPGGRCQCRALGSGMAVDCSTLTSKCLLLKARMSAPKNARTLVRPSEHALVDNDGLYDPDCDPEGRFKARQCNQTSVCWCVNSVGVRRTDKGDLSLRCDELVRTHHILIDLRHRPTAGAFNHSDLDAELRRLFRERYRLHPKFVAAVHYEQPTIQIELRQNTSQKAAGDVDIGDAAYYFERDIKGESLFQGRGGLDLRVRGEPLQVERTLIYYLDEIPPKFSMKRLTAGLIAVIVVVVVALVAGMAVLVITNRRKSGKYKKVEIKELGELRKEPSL

T4: His-tagged dog PTK7 protein (dog, UniProt Q13308 31-703 (human entry))
T4 construct: also called dPTK7-His
T4 chain: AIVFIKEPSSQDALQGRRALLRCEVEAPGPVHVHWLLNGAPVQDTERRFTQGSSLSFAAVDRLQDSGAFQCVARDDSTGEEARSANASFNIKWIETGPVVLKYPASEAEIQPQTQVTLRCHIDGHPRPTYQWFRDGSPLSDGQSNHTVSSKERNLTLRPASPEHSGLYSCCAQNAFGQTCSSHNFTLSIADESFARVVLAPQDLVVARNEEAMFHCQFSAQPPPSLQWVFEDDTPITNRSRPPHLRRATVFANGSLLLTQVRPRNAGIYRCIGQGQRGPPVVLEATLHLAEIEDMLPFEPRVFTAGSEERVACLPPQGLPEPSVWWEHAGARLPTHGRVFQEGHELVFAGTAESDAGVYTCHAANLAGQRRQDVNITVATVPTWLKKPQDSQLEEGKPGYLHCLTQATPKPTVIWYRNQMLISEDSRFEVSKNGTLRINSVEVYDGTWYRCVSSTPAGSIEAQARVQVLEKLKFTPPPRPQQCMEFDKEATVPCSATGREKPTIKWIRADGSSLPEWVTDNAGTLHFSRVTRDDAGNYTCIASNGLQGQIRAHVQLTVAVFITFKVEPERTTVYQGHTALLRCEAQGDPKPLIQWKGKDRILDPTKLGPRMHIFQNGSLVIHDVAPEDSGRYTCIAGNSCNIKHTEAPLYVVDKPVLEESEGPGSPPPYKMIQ

T5: dog PTK7 on dog cancer cell lines (dog, UniProt A0A8I3N574 31-1070)
T5 construct: whole, on cells; Endogenous protein on dog tumour cell lines; also called PTK7 on CMT-U27 and D-17 cells; dog cancer cells
T5 sequence: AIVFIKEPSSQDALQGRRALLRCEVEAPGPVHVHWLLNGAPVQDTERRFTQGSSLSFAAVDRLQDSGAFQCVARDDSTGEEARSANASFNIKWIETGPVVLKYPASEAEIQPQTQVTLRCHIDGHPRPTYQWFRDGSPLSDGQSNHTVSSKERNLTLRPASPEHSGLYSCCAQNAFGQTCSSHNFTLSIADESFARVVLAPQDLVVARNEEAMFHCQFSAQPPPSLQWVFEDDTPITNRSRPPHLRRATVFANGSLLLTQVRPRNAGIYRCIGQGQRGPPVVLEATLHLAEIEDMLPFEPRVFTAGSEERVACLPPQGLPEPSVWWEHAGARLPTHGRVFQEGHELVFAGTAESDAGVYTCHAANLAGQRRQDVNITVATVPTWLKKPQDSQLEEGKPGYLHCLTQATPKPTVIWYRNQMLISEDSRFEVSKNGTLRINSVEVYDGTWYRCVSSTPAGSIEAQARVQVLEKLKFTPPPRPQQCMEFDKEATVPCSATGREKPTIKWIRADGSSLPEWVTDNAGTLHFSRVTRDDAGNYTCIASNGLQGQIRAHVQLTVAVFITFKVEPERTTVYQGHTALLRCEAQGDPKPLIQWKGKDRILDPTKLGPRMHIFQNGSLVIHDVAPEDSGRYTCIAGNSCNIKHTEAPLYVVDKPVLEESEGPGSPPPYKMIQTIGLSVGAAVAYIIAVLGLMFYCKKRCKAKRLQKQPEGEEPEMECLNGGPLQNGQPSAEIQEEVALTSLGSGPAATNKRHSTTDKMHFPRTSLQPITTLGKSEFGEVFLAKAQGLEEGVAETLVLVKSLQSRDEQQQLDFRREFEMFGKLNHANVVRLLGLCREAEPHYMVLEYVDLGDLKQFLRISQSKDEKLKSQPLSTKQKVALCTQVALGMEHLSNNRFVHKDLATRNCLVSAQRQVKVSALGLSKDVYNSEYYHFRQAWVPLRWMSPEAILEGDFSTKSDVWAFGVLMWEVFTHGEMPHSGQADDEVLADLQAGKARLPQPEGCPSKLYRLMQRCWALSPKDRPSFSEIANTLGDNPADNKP


Key:
[1] = target: T1, His-tagged human TROP2 protein; test: SPR Biacore 8K, Ab on Protein A chip
Experimental: (§1) The affinity of the anti-TROP2 antibodies to His-tagged human TROP2 protein (hTROP2-His, ACRO Biosystems Inc., Cat #: TR2-H5223), His-tagged cynomolgus monkey TROP2 protein (cTROP2-His, ACRO Biosystems Inc., Cat #: TR2-R52H3) and His-tagged dog TROP2 protein (dTROP2-His, ACRO Biosystems Inc., Cat #: TR2-C52H4) were measured by surface plasmon resonance (SPR) using Biacore™ (Biacore, INC, Piscataway N.J.) 8K biosensor equipped with pre-immobilized Protein A sensor chips.
(§2) Purified anti-TROP2 antibodies were diluted to 1 μg/mL and then injected into the Biacore™ 8K biosensor at 10 μL/min for about 50 seconds to achieve a desired protein density (e.g., about 350 response units (RU)). The His-tagged TROP2 protein at a concentration of 200 nM was then injected at 30 μL/min for 180 seconds. Dissociation was monitored for 400 seconds. The chip was regenerated after the last injection of each titration with glycine (pH 2.0, 30 μL/min for 30 seconds).

[2] = target: T2, His-tagged monkey TROP2 protein; test: SPR Biacore 8K, Ab on Protein A chip
Experimental: as §1, §2

[3] = target: T3, TROP2 on NCI-H1975 and NUGC-4 tumor …; test: flow cytometry on NUGC-4 cells (only TROP2 expression), anti-hIgG-Fc Alexa Fluor 647 secondary antibody, MFI [B]
Experimental: (§3) This experiment was performed to test the binding activities of the anti-PTK7/TROP2 bispecific antibodies to different tumor cell lines. NCI-H1975 cells or NUGC-4 cells were transferred to a 96-well plate at a density of 5×10⁴ cells/well respectively. The sample antibody was added to the 96-well plate, and incubated at 4° C. for 30 min.

[4] = target: T3, TROP2 on NCI-H1975 and NUGC-4 tumor …; test: flow cytometry on NCI-H1975 cells (PTK7/TROP2 co-expression), anti-hIgG-Fc Alexa Fluor 647 secondary antibody, MFI [A]
Experimental: as §3

[5] = target: T4, His-tagged dog PTK7 protein; test: SPR Biacore 8K, Ab on Protein A chip
Experimental: as §2, with “anti-PTK7” for “anti-TROP2”, “50” for “350”, “PTK7” for “TROP2”, “200 nM or 0” for “200”

[6] = target: T5, dog PTK7 on dog cancer cell lines; test: flow cytometry, D-17 dog cells, Ab 5 ug/mL
Experimental: (§4) The binding activity of anti-PTK7 antibodies to cancer cell lines was verified by flow cytometry. […] Purified anti-PTK7 antibody with a concentration of 5 μg/mL was added to each well and was incubated at 4° C. for 30 minutes. […] The cells were collected, and the mean fluorescence intensity (MFI) was determined. Human IgG1 was used as ISO control.

[7] = target: T5, dog PTK7 on dog cancer cell lines; test: flow cytometry on CMT-U27 and D-17 cells
Experimental: as §4

[8] = target: T5, dog PTK7 on dog cancer cell lines; test: flow cytometry, CMT-U27 dog cells, Ab 5 ug/mL
Experimental: as §4

Binder | Kd [1] [nM] | koff [1] [s⁻¹] | kon [1] [M⁻¹ s⁻¹] | Kd [2] [nM] | koff [2] [s⁻¹] | kon [2] [M⁻¹ s⁻¹] | EC50 (read off the curve) [3] [µg/mL] | EC50 (read off the curve) [4] [µg/mL] | binding result [5] | binding result [3] | MFI [6] | binding result [7] | MFI [8]
Sacituzumab analog (antibody, V domains shown, also called antibody portion of Sacituzumab govitecan) VH: QVQLQQSGSELKKPGASVKVSCKASGYTFTNYGMNWVKQAPGQGLKWMGWINTYTGEPTYTDDFKGRFAFSLDTSVSTAYLQISSLKADDTAVYFCARGGFGSSYWYFDVWGQGSLVTVSS VL: DIQLTQSPSSLSASVGDRVSITCKASQDVSIAVAWYQQKPGKAPKLLIYSASYRYTGVPDRFSGSGSGTDFTLTISSLQPEDFAVYYCQQHYITPLTFGAGTKVEIKR | 1.24 | 0.000255 | 205000 | 1.11 | 0.000245 | 221000 | ~0.6 | ~0.7 | – | – | – | – | –
DS-1062 analog (antibody, V domains shown, The sheet names it 'DS-1062 analog' with no LALA or SI suffix, so it is kept apart from m18 (DS-1062 analog-LALA); also called antibody portion of DS-1062; copies: 2 + 2) VH: QVQLVQSGAEVKKPGASVKVSCKASGYTFTTAGMQWVRQAPGQGLEWMGWINTHSGVPKYAEDFKGRVTISADTSTSTAYLQLSSLKSEDTAVYYCARSGFGSSYWYFDVWGQGTLVTVSS VL: DIQMTQSPSSLSASVGDRVTITCKASQDVSTAVAWYQQKPGKAPKLLIYSASYRYTGVPSRFSGSGSGTDFTLTISSLQPEDFAVYYCQQHYITPLTFGQGTKLEIK | – | – | – | – | – | – | ~0.3 | ~0.4 | – | – | – | – | –
hu24 analog (antibody, IgG1, V domains shown, Humanized IgG1 monoclonal antibody targeting PTK7; also called positive control) VH: QVQLVQSGPEVKKPGASVKVSCKASGYTFTDYAVHWVRQAPGKRLEWIGVISTYNDYTYNNQDFKGRVTMTRDTSASTAYMELSRLRSEDTAVYYCARGNSYFYALDYWGQGTSVTVSS VL: EIVLTQSPATLSLSPGERATLSCRASESVDSYGKSFMHWYQQKPGQAPRLLIYRASNLESGIPARFSGSGSGTDFTLTISSLEPEDFAVYYCQQSNEDPWTFGGGTKLEIK | – | – | – | – | – | – | – | – | no binding (tested: 200 nM) | no binding (tested: about 20 µg/mL) | 3690 | no binding (tested: 5 ug/mL) | 1940
DS-1062 analog-LALA (antibody, V domains shown, also called DS-1062 analog with LALA mutations) VH: QVQLVQSGAEVKKPGASVKVSCKASGYTFTTAGMQWVRQAPGQGLEWMGWINTHSGVPKYAEDFKGRVTISADTSTSTAYLQLSSLKSEDTAVYYCARSGFGSSYWYFDVWGQGTLVTVSS VL: DIQMTQSPSSLSASVGDRVTITCKASQDVSTAVAWYQQKPGKAPKLLIYSASYRYTGVPSRFSGSGSGTDFTLTISSLQPEDFAVYYCQQHYITPLTFGQGTKLEIKR | 37 | 0.00411 | 111000 | 32.5 | 0.00409 | 126000 | – | – | – | – | – | – | –
18E9 (antibody, V domains shown, also called anti-TROP2 antibody 18E9) VH: QLQLQQSGPGLLKPSETLSLTCTVSGGSISSSYYFWGWIRQPPGKGLEWIGAIYYIGNTHYNPSLKSRVTISIDTSKNQFSLNLNSVTAADTAIYYCARYEDTWNWFDPWGQGTLVTVSS VL: not shown | 1.46 | 0.00117 | 798000 | 1.2 | 0.00132 | 1.1e+06 | – | – | – | – | – | – | –
18F12 (antibody, V domains shown, also called anti-TROP2 antibody 18F12) VH: QLQLKESGPGLVKPSETLSLTCTVSGGSISYYYWSWIRQPPGMGLEWIGNIYYSGDTNYNPSLRSRVTISIDMSKNQFSLRLNSVTAADTAVYYCARYDMFKWNYEAFDVWGQGTMVTVSS VL: not shown | 7.16 | 0.00511 | 713000 | 5.41 | 0.00435 | 803000 | – | – | – | – | – | – | –
